Laboratory results published in patent US20250376519A1 (JIANGSU HENGRUI PHARMACEUTICALS, published 2025).
Residue numbers refer to the chain shown, from its start.

T1: human DLL3 on cells (human, UniProt Q9NYJ7 27-618)
T1 construct: Endogenous on H1184 and SHP77; Cell line is named under assay; also called H1184; DLL3/H82
T1 sequence: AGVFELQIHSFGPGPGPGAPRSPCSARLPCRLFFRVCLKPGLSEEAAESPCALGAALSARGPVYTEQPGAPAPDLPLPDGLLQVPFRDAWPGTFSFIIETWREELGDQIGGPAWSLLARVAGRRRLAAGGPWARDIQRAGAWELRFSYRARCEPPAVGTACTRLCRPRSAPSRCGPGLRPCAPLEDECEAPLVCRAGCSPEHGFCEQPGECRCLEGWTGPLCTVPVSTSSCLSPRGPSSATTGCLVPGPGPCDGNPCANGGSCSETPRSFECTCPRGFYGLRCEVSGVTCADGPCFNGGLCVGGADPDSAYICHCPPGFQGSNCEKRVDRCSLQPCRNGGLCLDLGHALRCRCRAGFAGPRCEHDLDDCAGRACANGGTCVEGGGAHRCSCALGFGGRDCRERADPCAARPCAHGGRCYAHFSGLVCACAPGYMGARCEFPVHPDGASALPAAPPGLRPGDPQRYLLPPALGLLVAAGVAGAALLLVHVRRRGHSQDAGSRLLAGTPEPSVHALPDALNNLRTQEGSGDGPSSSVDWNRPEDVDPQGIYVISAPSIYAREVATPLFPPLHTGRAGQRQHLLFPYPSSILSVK

T2: human DLL3 (ACRO, DLL3-H52H4) (human, UniProt Q9NYJ7 27-492)
T2 construct: Bought
T2 sequence: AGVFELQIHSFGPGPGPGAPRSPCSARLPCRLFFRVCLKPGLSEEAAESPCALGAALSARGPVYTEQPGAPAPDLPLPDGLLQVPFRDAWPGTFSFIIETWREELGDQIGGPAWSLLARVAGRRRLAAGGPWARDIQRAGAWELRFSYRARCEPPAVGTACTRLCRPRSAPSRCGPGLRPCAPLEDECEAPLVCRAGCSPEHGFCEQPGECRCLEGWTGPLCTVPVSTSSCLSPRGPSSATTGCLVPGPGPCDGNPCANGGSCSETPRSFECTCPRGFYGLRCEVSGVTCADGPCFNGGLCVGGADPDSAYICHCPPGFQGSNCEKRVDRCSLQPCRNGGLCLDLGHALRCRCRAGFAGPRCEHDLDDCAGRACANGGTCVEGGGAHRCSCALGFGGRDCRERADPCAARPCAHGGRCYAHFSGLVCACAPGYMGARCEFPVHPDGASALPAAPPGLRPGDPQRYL

B1: HJ-3 (bispecific antibody)
chain 1: not shown
chain 2: DIQMTQSPSSVSASVGDRVTITCRASQDIANYLSWYQQKPGKSPKLLIYGTSNLEVGVPSRFSGSRSGTDFTLTISSLQPEDFATYYCLQDKEFPRTFGGGTKVEIKGGGGSSGAPRFLTRPLAFVVSVGKDATLSSQIVGNPTPQVSWEKDKQPVTAGARFRLAQDGDLYRLKILDLQLSDSGQYVSRARNAIGEAFACLGLQVDAEA
chain 3: EVQLVQSGAEVKKPGSSVKVSCKASGYTFSNYLIEWVRQAPGQGLEWIGVIDPGVGDTNYNENFKGRATLTADKSTSTAYIELSSLRSEDTAVYYCAREDNTGTAFDYWGQGTTVTVSSASTKGPSVFPLAPSSKSTSGGTAALGCLVKDYFPEPVTVSWNSGALTSGVHTFPAVLQSSGLYSLSSVVTVPSSSLGTQTYICNVNHKPSNTKVDKKVEPKSCDKTHTCPPCPAPEAAGGPSVFLFPPKPKDTLMISRTPEVTCVVVDVSHEDPEVKFNWYVDGVEVHNAKTKPREEQYNSTYRVVSVLTVLHQDWLNGKEYKCKVSNKALPAPIEKTISKAKGQPREPQVCTLPPSREEMTKNQVSLSCAVKGFYPSDIAVEWESNGQPENNYKTTPPVLDSDGSFFLVSKLTVDKSRWQQGNVFSCSVMHEALHNHYTQKSLSLSPGKDYKDDDDK
chain 4: SIVMTQTPLSLSVTPGQPASISCKASQSVSSDVTWYLQKPGQSPQLLIYYVSEHYTGVPDRFSGSGYGTDFTLKISRVEAEDVGVYYCQQHHRFPLTFGQGTKLEIKRTVAAPSVFIFPPSDEQLKSGTASVVCLLNNFYPREAKVQWKVDNALQSGNSQESVTEQDSKDSTYSLSSTLTLSKADYEKHKVYACEVTHQGLSSPVTKSFNRGEC
B2: HJ-5 (bispecific antibody)
chain 1: not shown
chain 2: B1 chain 2 with L123K, F125S, T144F, A160V, I194H
chain 3: EVQLVQSGAEVKKPGSSVKVSCKASGYTFSNYLIEWVRQAPGQGLEWIGVIDPGVGDTNYNENFKGRATLTADKSTSTAYIELSSLRSEDTAVYYCAREDNTGTAFDYWGQGTTVTVSSASTKGPSVFPLAPSSKSTSGGTAALGCLVKDYFPEPVTVSWNSGALTSGVHTFPAVLQSSGLYSLSSVVTVPSSSLGTQTYICNVNHKPSNTKVDKKVEPKSCDKTHTCPPCPAPEAAGGPSVFLFPPKPKDTLMISRTPEVTCVVVDVSHEDPEVKFNWYVDGVEVHNAKTKPREEQYNSTYRVVSVLTVLHQDWLNGKEYKCKVSNKALPAPIEKTISKAKGQPREPQVCTLPPSREEMTKNQVSLSCAVKGFYPSDIAVEWESNGQPENNYKTTPPVLDSDGSFFLVSKLTVDKSRWQQGNVFSCSVMHEALHNHYTQKSLSLSPGK
chain 4: B1 chain 4
B3: HJ-6 (bispecific antibody)
chain 1: not shown
chain 2: B1 chain 2 with R121C, L123K, F125S, T144F, A160V, I194H
chain 3: B2 chain 3
chain 4: B1 chain 4
B4: HJ-7 (bispecific antibody)
chain 1: not shown
chain 2: B1 chain 2 with L123K, F125S, S137C, T144F, A160V, S188C, I194H
chain 3: B2 chain 3
chain 4: B1 chain 4
B5: HJ-8 (bispecific antibody)
chain 1: not shown
chain 2: B1 chain 2 with G108R, G109T, G110V, G111A, L123K, F125S, T144F, A160V, I194H
chain 3: B2 chain 3
chain 4: B1 chain 4
B6: HJ-9 (bispecific antibody)
chain 1: not shown
chain 2: B1 chain 2 with G108R, G109T, G110V, G111A, R121C, L123K, F125S, T144F, A160V, I194H
chain 3: B2 chain 3
chain 4: B1 chain 4
B7: HJ-10 (bispecific antibody)
chain 1: not shown
chain 2: DIQMTQSPSSVSASVGDRVTITCRASQDIANYLSWYQQKPGKSPKLLIYGTSNLEVGVPSRFSGSRSGTDFTLTISSLQPEDFATYYCLQDKEFPRTFGGGTKVEIKRTVASSGAPRFLTRPKASVVSVGKDATLSCQIVGNPFPQVSWEKDKQPVTAGVRFRLAQDGDLYRLKILDLQLSDSGQYVCRARNAHGEAFACLGLQVDAEA
chain 3: B2 chain 3
chain 4: B1 chain 4
B8: HJ-11 (bispecific antibody)
chain 1: not shown
chain 2: B7 chain 2 with A115C
chain 3: B2 chain 3
chain 4: B1 chain 4
B9: hu30L1H5 (antibody, human IgG1, kappa, V domains shown)
VH: EVRLVQSGAEVKKPGASVKVSCKASGYTFTDYYMNWVRQAPGQSLEWMGIINPYTGDTSYNQKFRGRVTLTVDKSASTAYMELSSLRSEDTAVYYCARYHYGPHLEGYFDVWGQGTTVTVSS
VL: DIVMTQSPDSLAVSLGERATINCKASENVGYVSWYQQKPGQPPKLLIYGASNRYTGVPDRFSGSGSGTDFTLTISSLQAEDVAVYYCGQSYSYPLTFGQGTKLEIKR
B10: hu30L4H8 (antibody, human IgG1, kappa, V domains shown)
VH: B9 VH with S7F, E10V, A76S
VL: DIQMTQSPSSLSASVGDRVTITCKASENVGYVSWYQQKPGKAPKLLIYGASNRYTGVPSRFSGSGSGTDFTLTISSLQPEDFATYYCGQSYSYPLTFGQGTKLEIKR
B11: hu30L4H9 (antibody, human IgG1, kappa, V domains shown)
VH: B9 VH with M48I, V68A
VL: B10 VL
B12: hu30L4H11 (antibody, human IgG1, kappa, V domains shown)
VH: B9 VH with S7F, E10V, A76S, R87T
VL: B10 VL
B13: hu30L5H5 (antibody, human IgG1, kappa, V domains shown)
VH: B9 VH
VL: B10 VL with A42S, S59D, Q99S
B14: hu30L5H9 (antibody, human IgG1, kappa, V domains shown)
VH: B9 VH with M48I, V68A
VL: B10 VL with A42S, S59D, Q99S

What follows are binders tested against hTSLP (human, UniProt Q969D9 29-159) (assay: ELISA).
With B1 the EC50 was 3.23 nM. B2 was tested, and the EC50 was 2.64 nM. With B3 the EC50 was 2.88 nM. Binder B4 has an EC50 of 2.18 nM. For B5, the EC50 was 3.33 nM. In the case of B6, the EC50 is reported as 3.18 nM. With B7 the EC50 was 3.17 nM. B8 showed an EC50 of 3 nM.

Each binder was assayed against hIL5 (human, UniProt P05113 20-134) (assay: ELISA).
Work on B1 yielded an EC50 of 17.4 nM. Work on B2 yielded an EC50 of 16 nM. In the case of B3, the EC50 is reported as 37 nM. With B4 the EC50 was 17.7 nM. B5 showed an EC50 of 18.7 nM. In the case of B6, the EC50 is reported as 10.9 nM. With B7 the EC50 was 20.8 nM. In the case of B8, the EC50 is reported as 9.46 nM.

Each binder was assayed against T1, human DLL3 on cells (assay: flow cytometry, SHP77 cells).
Method: (§1) The plates were centrifuged at 300 g for 5 min, and the supernatant was removed. Different concentrations of test antibodies were added at 100 μL/well. The plates were incubated in the dark in a refrigerator at 4° C. for 1 h. After 3 centrifugal washes at 300 g, working concentrations of APC anti-human IgG Fc (BioLegend, 410712) or PE F(ab′)2-goat anti-human IgG (invitrogen, H10104) were added. The plates were incubated in the dark in a refrigerator at 4° C. for 40 min. After 3 centrifugal washes at 300 g, the geometric mean fluorescence intensity was measured on an Invitrogen flow cytometer, and the EC50 values for the binding of the antibodies to DLL3-expressing cells were calculated.
In the case of B9, the EC50 is reported as 6.45 nM and the Emax is reported as 1540. B10 gave an EC50 of 5.3 nM and an Emax of 1420. B11 was tested, and the EC50 was 9.94 nM and the Emax was 1370. With B12 the EC50 was 7.82 nM and the Emax was 1520. Binder B13 has an EC50 of 7.48 nM and an Emax of 1610. For B14, the EC50 was 9.6 nM and the Emax was 1560.

What follows are binders tested against T1, human DLL3 on cells (assay: flow cytometry, DLL3/H82 cells).
Set-up: key to Emax: geometric mean fluorescence intensity (flow cytometry)
Method: as §1
Work on B9 yielded an EC50 of 0.88 nM and an Emax of 6800.

What follows are binders tested against T2, human DLL3 (ACRO, DLL3-H52H4) (assay: SPR Biacore 8K, Ab captured on Protein A).
Method in brief: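 Antibodies captured on a Protein A chip for 18 s; DLL3 or CD3D&3E antigen flowed 180 s, then 600 s dissociation, with real-time detection. Regeneration used 10 mM glycine-HCl pH 1.5 between cycles. Kinetics were obtained by 1:1 model fitting.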
For B9, the Kd was 0.952 nM, the koff was 0.00117 s⁻¹ and the kon was 1.23e+06 M⁻¹ s⁻¹. Work on B10 yielded a Kd of 2.74 nM, a koff of 0.000942 s⁻¹ and a kon of 343000 M⁻¹ s⁻¹. Binder B11 has a Kd of 2.57 nM, a koff of 0.00101 s⁻¹ and a kon of 392000 M⁻¹ s⁻¹. Work on B12 yielded a Kd of 2.84 nM, a koff of 0.00113 s⁻¹ and a kon of 398000 M⁻¹ s⁻¹. In the case of B13, the Kd is reported as 1.98 nM, the koff is reported as 0.000882 s⁻¹ and the kon is reported as 446000 M⁻¹ s⁻¹. B14 was tested, and the Kd was 2.48 nM, the koff was 0.000989 s⁻¹ and the kon was 399000 M⁻¹ s⁻¹.
